Paper PMC4574047, “Biochemical Characterization of Putative Adenylate Dimethylallyltransferase and Cytokinin Dehydrogenase from Nostoc sp. PCC 7120” (PLoS ONE, 2015)

Legend:
NoIPT1 = biological target: T1, NoIPT1 (Nostoc sp. PCC 7120 = FACHB-418, UniProt A0ACD7S271); experiment: HPLC-UV product determination; trans-zeatin-5'-monophosphate formed; format: biochemical; settings: with AMP, 10 mM MgCl2, pH 7.5, 25°C
T1 construct: gene all0220; full gene in pET-28b(+) (NdeI/SalI), N-terminal polyhistidine tag kept; E. coli BL21(DE3) STAR
T1 sequence (A0ACD7S271 1-244): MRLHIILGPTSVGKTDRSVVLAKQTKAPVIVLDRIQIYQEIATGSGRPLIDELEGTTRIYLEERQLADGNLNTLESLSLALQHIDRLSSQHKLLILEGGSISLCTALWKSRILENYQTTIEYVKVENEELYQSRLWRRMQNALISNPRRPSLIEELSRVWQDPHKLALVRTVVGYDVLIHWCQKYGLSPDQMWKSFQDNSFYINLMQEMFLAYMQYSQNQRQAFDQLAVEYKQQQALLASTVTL

purified protein [1] = substrate: CC(C)=CCOP(=O)(O)OP(=O)(O)O; experiment: purified protein; format: biochemical, Nostoc sp. PCC 7120 = FACHB-418; settings: 20 μM AMP, 10 mM MgCl2, 100 mM Tris/HCl pH 7.5, 25°C
purified protein [2] = substrate: Nc1ncnc2c1ncn2[C@@H]1O[C@H](COP(=O)(O)O)[C@@H](O)[C@H]1O; experiment: purified protein; format: biochemical, Nostoc sp. PCC 7120 = FACHB-418; settings: 150 μM DMAPP, 10 mM MgCl2, 100 mM Tris/HCl pH 7.5, 25°C

In the case of `C/C(=C\COP(=O)(O)OP(=O)(O)O)CO` [HMBPP, (E)-4-hydroxy-3-methyl-but-2-enyl diphosphate], the “HPLC-UV product determination; trans-zeatin-5'-monophosphate formed” value (NoIPT1) is reported as “NoIPT1 used a hydroxylated side chain precursor, HMBPP, to form trans-zeatin-5´-monophosphate in the reaction with AMP”.

B1: NoIPT1 (Nostoc sp. PCC 7120 = FACHB-418) (protein)
chain: T1 sequence (A0ACD7S271 1-244)
notes: full gene in pET-28b(+) (NdeI/SalI), N-terminal polyhistidine tag kept; E. coli BL21(DE3) STAR
B1 showed a Km (purified protein [1]) of 27.05 ± 2.47 µM and a Km (purified protein [2]) of 0.63 ± 0.18 µM.
